Paper PMC12990809

Assays:
Experiment in all cases: pulldown
[1] = target: T1, Tb11.01.3940 (Trypanosoma brucei) (UniProt Q382W9); settings: 20 nM protein, 1.5 uM RNA pool; 20 mM HEPES pH 7.8, 70 mM KCl, 10 mM NaCl, 10% glycerol, 2 mM DTT, 0.1 ug/uL BSA; 30 min, 4 C
T1 sequence: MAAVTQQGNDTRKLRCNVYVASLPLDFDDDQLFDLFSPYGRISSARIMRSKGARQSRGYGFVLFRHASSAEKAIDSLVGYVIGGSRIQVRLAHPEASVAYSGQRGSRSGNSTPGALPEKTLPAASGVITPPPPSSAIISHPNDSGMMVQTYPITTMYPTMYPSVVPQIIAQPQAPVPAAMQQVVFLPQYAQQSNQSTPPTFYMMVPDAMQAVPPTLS

[2] = target: T2, CG1316 G229S (Drosophila melanogaster) (UniProt Q7JRD2); settings: 20 nM protein, 1.5 uM RNA pool; 20 mM HEPES pH 7.8, 70 mM KCl, 10 mM NaCl, 10% glycerol, 2 mM DTT, 0.1 ug/uL BSA; 30 min, 4 C
T2 sequence: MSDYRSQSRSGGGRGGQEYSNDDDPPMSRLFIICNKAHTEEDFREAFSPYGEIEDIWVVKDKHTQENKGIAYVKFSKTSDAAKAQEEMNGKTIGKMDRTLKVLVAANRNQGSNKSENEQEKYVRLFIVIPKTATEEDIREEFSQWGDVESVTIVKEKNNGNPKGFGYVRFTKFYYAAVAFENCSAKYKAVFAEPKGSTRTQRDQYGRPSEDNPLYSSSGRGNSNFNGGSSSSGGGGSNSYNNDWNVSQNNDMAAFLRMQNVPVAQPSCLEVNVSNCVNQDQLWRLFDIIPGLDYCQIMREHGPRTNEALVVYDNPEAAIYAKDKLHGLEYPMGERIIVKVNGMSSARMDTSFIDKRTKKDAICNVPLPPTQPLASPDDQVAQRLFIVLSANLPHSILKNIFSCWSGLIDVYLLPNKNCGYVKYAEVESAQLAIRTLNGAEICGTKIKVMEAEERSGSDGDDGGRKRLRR

[3] = target: T3, LmjF.27.2100 (Leishmania major) (UniProt E9ADJ0); settings: 20 nM protein, 1.5 uM RNA pool; 20 mM HEPES pH 7.8, 70 mM KCl, 10 mM NaCl, 10% glycerol, 2 mM DTT, 0.1 ug/uL BSA; 30 min, 4 C
T3 sequence: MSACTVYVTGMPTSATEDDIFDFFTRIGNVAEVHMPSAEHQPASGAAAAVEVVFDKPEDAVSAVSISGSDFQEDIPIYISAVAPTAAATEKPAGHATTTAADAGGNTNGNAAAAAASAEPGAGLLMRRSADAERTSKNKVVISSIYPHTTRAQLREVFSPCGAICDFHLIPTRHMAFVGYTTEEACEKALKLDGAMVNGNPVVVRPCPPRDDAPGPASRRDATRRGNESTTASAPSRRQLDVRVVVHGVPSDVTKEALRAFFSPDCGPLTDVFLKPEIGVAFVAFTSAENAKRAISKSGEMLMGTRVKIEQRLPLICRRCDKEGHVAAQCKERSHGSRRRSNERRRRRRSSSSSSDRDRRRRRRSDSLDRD

[4] = target: T4, Hrb87F (Drosophila melanogaster) (UniProt P48810); settings: 20 nM protein, 1.5 uM RNA pool; 20 mM HEPES pH 7.8, 70 mM KCl, 10 mM NaCl, 10% glycerol, 2 mM DTT, 0.1 ug/uL BSA; 30 min, 4 C (protocol of this paper; not …); cited from earlier work
T4 sequence: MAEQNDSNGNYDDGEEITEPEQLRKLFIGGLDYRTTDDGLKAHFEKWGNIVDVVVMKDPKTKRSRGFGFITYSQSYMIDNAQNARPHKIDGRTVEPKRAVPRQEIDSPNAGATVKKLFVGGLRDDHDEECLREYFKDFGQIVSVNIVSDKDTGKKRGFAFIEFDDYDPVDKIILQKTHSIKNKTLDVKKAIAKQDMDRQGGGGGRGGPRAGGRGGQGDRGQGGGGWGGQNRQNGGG

[5] = target: hnrnpa0a (Danio rerio) (UniProt Q6NYB0); settings: 20 nM protein, 1.5 uM RNA pool; 20 mM HEPES pH 7.8, 70 mM KCl, 10 mM NaCl, 10% glycerol, 2 mM DTT, 0.1 ug/uL BSA; 30 min, 4 C
[6] = target: T5, LmjF.25.0500 (Leishmania major) (UniProt Q4QA45); settings: 20 nM protein, 1.5 uM RNA pool; 20 mM HEPES pH 7.8, 70 mM KCl, 10 mM NaCl, 10% glycerol, 2 mM DTT, 0.1 ug/uL BSA; 30 min, 4 C
T5 sequence: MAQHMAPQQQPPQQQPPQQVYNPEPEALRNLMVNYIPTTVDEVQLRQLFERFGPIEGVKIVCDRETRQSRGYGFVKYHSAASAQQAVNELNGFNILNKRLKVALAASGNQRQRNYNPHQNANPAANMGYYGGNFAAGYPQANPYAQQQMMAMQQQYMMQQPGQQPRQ

[7] = target: T6, HRP1 (Saccharomyces cerevisiae) (UniProt Q99383); settings: 20 nM protein, 1.5 uM RNA pool; 20 mM HEPES pH 7.8, 70 mM KCl, 10 mM NaCl, 10% glycerol, 2 mM DTT, 0.1 ug/uL BSA; 30 min, 4 C (protocol of this paper; not …); cited from earlier work
T6 sequence: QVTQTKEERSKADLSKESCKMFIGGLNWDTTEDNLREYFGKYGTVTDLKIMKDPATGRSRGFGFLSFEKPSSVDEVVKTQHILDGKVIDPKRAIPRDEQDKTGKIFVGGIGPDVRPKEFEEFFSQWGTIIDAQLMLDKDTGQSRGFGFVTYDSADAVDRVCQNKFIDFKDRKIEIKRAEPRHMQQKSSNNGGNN

[8] = target: T7, tardbpl (Danio rerio) (UniProt A0A8M1PDP8); settings: 20 nM protein, 1.5 uM RNA pool; 20 mM HEPES pH 7.8, 70 mM KCl, 10 mM NaCl, 10% glycerol, 2 mM DTT, 0.1 ug/uL BSA; 30 min, 4 C
T7 sequence: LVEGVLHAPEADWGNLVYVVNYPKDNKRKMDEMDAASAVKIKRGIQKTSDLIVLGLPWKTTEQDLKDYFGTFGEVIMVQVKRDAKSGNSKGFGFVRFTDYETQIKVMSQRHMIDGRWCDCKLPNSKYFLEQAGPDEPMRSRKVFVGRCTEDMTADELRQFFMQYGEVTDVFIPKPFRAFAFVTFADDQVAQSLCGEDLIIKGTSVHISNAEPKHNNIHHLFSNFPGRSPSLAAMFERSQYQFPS

[9] = target: T8, aret (Drosophila melanogaster) (UniProt E1JHG6); settings: 20 nM protein, 1.5 uM RNA pool; 20 mM HEPES pH 7.8, 70 mM KCl, 10 mM NaCl, 10% glycerol, 2 mM DTT, 0.1 ug/uL BSA; 30 min, 4 C (protocol of this paper; not …); cited from earlier work
T8 sequence: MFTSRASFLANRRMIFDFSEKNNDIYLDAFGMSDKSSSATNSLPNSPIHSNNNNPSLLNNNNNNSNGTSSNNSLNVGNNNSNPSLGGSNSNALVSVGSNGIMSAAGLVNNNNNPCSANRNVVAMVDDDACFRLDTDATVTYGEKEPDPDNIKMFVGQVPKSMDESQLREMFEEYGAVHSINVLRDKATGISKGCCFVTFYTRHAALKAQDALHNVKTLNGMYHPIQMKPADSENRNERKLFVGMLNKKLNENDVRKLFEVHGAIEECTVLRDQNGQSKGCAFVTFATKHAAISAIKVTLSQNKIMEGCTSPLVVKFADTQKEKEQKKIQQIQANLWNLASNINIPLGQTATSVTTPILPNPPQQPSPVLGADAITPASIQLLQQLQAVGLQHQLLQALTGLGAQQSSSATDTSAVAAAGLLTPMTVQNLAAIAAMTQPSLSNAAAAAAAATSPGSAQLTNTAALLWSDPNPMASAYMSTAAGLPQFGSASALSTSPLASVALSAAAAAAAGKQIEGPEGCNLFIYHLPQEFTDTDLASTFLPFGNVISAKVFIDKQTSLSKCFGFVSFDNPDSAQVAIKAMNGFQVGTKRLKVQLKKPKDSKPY

Sequence of hnrnpa0a (Danio rerio) (Q6NYB0 entry or part of it): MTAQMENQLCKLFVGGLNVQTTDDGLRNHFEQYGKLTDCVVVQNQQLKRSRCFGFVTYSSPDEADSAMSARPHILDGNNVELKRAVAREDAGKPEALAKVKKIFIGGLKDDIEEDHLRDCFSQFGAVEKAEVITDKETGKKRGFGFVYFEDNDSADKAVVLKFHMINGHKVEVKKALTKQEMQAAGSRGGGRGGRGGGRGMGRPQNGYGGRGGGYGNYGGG

Question: For CUUAACC [RNAcompete motif RNCMPT00695], which binding signal (z-score (mean of top ten 7-mers)) [1] is on record?
Answer: 14.8

Question: For GACNGAC [RNAcompete motif RNCMPT00698], which binding signal (z-score (mean of top ten 7-mers)) [2] is on record?
Answer: 10.1

Question: For GGAGGA [RNAcompete motif RNCMPT00667], which binding signal (z-score (mean of top ten 7-mers)) [3] is on record?
Answer: 6.1

Question: Which binding signal (z-score (mean of top ten 7-mers)) [4] does the source give for GGUAGGG [RNAcompete motif RNCMPT00029] here?
Answer: 13.4

Question: Which binding signal (z-score (mean of top ten 7-mers)) [5] does the source give for UAGGA [RNAcompete motif RNCMPT00677] here?
Answer: 9.94

Question: With UAGUUU [RNAcompete motif RNCMPT00689] as the substance, how does the binding signal (z-score (mean of top ten 7-mers)) [6] read?
Answer: 11.6

Question: For UAUGUA [RNAcompete motif RNCMPT00031], which binding signal (z-score (mean of top ten 7-mers)) [7] is on record?
Answer: 23.4

Question: Which binding signal (z-score (mean of top ten 7-mers)) [8] does the source give for UGAAUG [RNAcompete motif RNCMPT00683] here?
Answer: 11.3

Question: For UNUGUGU [RNAcompete motif RNCMPT00003], which binding signal (z-score (mean of top ten 7-mers)) [9] is on record?
Answer: 21.4
